{"source": "paper PMC10807245", "about": "“A functional and structural comparative analysis of large tumor antigens reveals evolution of different importin α‐dependent nuclear localization signals” (Protein Science : A Publication of the Protein Society, 2024)", "binders": {"B1": {"name": "JCPyV LTA NLS peptide (peptide)", "peptide": "{FITC′-Ahx}-MFASDDENTGSQHSTPPKKKKKV", "notes": "also called JCPyV LTA cNLS; JCPyV LTA monopartite cNLS"}, "B2": {"name": "MWPyV LTA NLSbip peptide (peptide)", "peptide": "{FITC′-Ahx}-PKKRPRESSSNSTCTPPKRPRNF", "notes": "also called MWPyV LTA cNLS; MWPyV LTA bipartite cNLS"}, "B3": {"name": "KIPyV LTA NLSbip peptide (peptide)", "peptide": "{FITC′-Ahx}-KRSAPEEEPSCSQATPPKKKHA", "notes": "also called KIPyV LTA cNLS; KIPyV LTA bipartite cNLS"}, "B4": {"name": "STLPyV LTA NLSbip peptide (peptide)", "peptide": "{FITC′-Ahx}-KRKFPDSSTQNSTPPKKNKPA", "notes": "also called STLPyV LTA cNLS; STLPyV LTA bipartite cNLS"}, "B5": {"name": "MCPyV LTA NLSbip peptide (peptide)", "peptide": "{FITC′-Ahx}-PFSRKRKFGGSRSSASSASSASFTSTPPKPKKNRE", "notes": "also called MCPyV LTA cNLS; bipartite MCPyV LTA NLS; source: synthetic peptide (solid phase, HPLC purified)"}, "B6": {"name": "WUPyV LTA NLSbip peptide (peptide)", "peptide": "{FITC′-Ahx}-KRTREDDEEPQCSQATPPKKKKD", "notes": "also called WUPyV LTA cNLS; WUPyV LTA bipartite cNLS"}, "B7": {"name": "MCPyV LTA NLSm peptide (peptide)", "peptide": "{FITC′}-PFSRKRKFGGS"}}, "note": "Primed or numbered codes have the meaning given here. Where no end group is shown, it is not given here. FITC′ = fluorescein isothiocyanate; Ahx = NCCCCCC(=O)O"}
{"biological_target": "T1, human importin α1 lacking the IBB domain (IMPα1ΔIBB) (human, UniProt P52292 70-529)", "assay": "fluorescence polarisation; two-fold dilutions of IMPαΔIBB titrated against FITC-cNLS peptide in tris-buffered saline, 200 μL; one site specific binding fit; triplicate", "settings": "both partners purified", "units": {"Kd": "nM"}}
{"binder": "B1", "Kd": "76 to 270"}
{"biological_target": "T1, human importin α1 lacking the IBB …", "assay": "native gel or EMSA; 1.5% agarose gel in TB buffer (0.45 mM tris, 0.45 mM boric acid, pH 8.5), 70 V for 2 h; IMPαΔIBB ± FITC-cNLS peptide; UV image for the peptide, Coomassie for the protein", "settings": "both partners purified"}
{"binder": "B2", "binding result": "binds"}
{"binder": "B3", "binding result": "binds"}
{"binder": "B4", "binding result": "binds"}
{"binder": "B5", "binding result": "binds"}
{"binder": "B6", "binding result": "binds"}
{"biological_target": "human importin α7 lacking the IBB domain (IMPα7ΔIBB) (human, UniProt O60684 73-536)", "sequence (O60684 73-536, stated change not applied)": "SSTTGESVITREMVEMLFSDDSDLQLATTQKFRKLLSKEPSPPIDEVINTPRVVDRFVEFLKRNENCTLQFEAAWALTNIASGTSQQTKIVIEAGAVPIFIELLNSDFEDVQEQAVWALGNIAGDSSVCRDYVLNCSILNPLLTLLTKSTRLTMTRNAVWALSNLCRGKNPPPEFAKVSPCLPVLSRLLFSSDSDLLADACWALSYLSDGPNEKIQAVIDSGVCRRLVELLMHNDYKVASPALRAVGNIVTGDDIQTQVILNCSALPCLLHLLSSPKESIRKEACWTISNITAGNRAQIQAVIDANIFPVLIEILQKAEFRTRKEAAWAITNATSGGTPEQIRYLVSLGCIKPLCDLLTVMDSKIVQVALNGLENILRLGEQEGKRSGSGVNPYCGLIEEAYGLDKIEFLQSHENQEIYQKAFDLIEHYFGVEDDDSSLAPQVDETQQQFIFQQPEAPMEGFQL", "assay": "native gel or EMSA; 1.5% agarose gel in TB buffer (0.45 mM tris, 0.45 mM boric acid, pH 8.5), 70 V for 2 h; IMPαΔIBB ± FITC-cNLS peptide; UV image for the peptide, Coomassie for the protein", "settings": "both partners purified"}
{"binder": "B2", "binding result": "binds"}
{"binder": "B3", "binding result": "binds"}
{"binder": "B4", "binding result": "binds"}
{"binder": "B1", "binding result": "binds"}
{"binder": "B5", "binding result": "binds"}
{"binder": "B6", "binding result": "binds"}
{"biological_target": "T2, human importin α3 lacking the IBB domain (IMPα3ΔIBB) (human, UniProt O00629 64-521)", "T2 sequence (looked up)": "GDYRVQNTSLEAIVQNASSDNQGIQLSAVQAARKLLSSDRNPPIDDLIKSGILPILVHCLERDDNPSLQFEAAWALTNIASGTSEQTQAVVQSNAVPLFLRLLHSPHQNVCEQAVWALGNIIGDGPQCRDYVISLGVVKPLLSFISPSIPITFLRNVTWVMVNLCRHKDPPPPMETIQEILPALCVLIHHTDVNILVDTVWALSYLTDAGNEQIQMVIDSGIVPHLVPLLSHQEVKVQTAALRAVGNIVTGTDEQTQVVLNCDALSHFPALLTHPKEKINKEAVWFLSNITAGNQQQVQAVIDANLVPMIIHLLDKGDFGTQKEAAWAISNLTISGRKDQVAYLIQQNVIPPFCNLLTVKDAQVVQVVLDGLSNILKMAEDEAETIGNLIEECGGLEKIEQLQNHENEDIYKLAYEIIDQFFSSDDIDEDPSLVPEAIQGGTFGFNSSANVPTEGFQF", "assay": "native gel or EMSA; 1.5% agarose gel in TB buffer (0.45 mM tris, 0.45 mM boric acid, pH 8.5), 70 V for 2 h; IMPαΔIBB ± FITC-cNLS peptide; UV image for the peptide, Coomassie for the protein", "settings": "both partners purified"}
{"binder": "B2", "binding result": "binds"}
{"binder": "B3", "binding result": "binds"}
{"binder": "B4", "binding result": "binds"}
{"binder": "B1", "binding result": "binds"}
{"binder": "B5", "binding result": "binds"}
{"binder": "B6", "binding result": "binds"}
{"biological_target": "human importin α5 lacking the IBB domain (IMPα5ΔIBB) (human, UniProt P52294 73-538)", "sequence (P52294 73-538, stated change not applied)": "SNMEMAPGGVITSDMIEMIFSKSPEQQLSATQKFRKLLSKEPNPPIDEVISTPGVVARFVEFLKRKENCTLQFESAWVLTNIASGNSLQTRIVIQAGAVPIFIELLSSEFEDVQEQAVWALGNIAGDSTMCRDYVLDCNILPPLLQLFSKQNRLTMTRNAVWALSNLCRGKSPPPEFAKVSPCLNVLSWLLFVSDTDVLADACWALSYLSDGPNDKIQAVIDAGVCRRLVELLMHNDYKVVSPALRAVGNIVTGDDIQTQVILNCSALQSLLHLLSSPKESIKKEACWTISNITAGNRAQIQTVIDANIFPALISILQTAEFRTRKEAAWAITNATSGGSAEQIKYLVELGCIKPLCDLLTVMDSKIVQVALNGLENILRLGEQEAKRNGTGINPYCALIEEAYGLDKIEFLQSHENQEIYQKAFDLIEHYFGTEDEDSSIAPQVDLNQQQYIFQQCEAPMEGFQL", "assay": "native gel or EMSA; 1.5% agarose gel in TB buffer (0.45 mM tris, 0.45 mM boric acid, pH 8.5), 70 V for 2 h; IMPαΔIBB ± FITC-cNLS peptide; UV image for the peptide, Coomassie for the protein", "settings": "both partners purified"}
{"binder": "B2", "binding result": "binds"}
{"binder": "B3", "binding result": "binds"}
{"binder": "B4", "binding result": "binds"}
{"binder": "B1", "binding result": "binds"}
{"binder": "B5", "binding result": "binds"}
{"binder": "B6", "binding result": "binds"}
{"biological_target": "T3, mouse importin α2 lacking the IBB domain (IMPα2ΔIBB) (mouse, UniProt P52293 70-529)", "assay": "native gel or EMSA; 1.5% agarose gel in TB buffer (0.45 mM tris, 0.45 mM boric acid, pH 8.5), 70 V for 2 h; IMPαΔIBB ± FITC-cNLS peptide; UV image for the peptide, Coomassie for the protein", "settings": "both partners purified"}
{"binder": "B2", "binding result": "binds"}
{"binder": "B3", "binding result": "binds"}
{"binder": "B4", "binding result": "binds"}
{"binder": "B7", "binding result": "binds"}
{"binder": "B5", "binding result": "binds"}
{"binder": "B6", "binding result": "binds"}
{"biological_target": "T3, mouse importin α2 lacking the IBB …", "assay": "crystal structure", "settings": "both partners purified"}
{"binder": "B1", "binding result": "binds"}
